T1: noro antigen (recombinant of the p-domain protein of the GII/4 norovirus (NSW-2012)) (GII/4 norovirus (NSW-2012), UniProt P54635 1-539)
T1 construct: Viral capsid protein antigen; also called antigen of the norovirus; recombinant p-domain protein
T1 chain: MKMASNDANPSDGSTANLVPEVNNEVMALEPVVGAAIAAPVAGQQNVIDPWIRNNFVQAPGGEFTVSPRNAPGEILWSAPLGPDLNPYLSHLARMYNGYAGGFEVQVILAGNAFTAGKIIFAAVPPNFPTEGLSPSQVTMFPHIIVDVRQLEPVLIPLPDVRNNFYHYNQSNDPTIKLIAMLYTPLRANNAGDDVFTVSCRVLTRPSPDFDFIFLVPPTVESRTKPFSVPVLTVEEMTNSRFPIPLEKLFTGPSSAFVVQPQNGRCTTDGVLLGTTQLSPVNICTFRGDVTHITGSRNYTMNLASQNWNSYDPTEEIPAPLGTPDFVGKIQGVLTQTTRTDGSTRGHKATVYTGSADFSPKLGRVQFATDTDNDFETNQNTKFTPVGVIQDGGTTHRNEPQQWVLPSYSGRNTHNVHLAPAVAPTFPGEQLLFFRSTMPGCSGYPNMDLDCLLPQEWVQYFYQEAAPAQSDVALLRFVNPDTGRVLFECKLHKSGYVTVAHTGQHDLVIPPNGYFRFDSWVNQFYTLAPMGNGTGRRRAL

T2: VLP noro antigen derived from the norovirus GII/4, composed by associating 90 dimers of VP1 each including … (norovirus GII/4, UniProt P54635 1-539)
T2 construct: Virus-like particle; also called solid phase VLP
T2 chain: T1 chain

B1: VHH antibody including the amino acid sequence represented by SEQ ID NO: 38 (VHH)
VHH: QVQLVESGGGVVQTGGSLRLSCAASGSTFSIGAMGWYRQAPGKQRELVATVNRASRTIYADSVRGRFTISRDNAKNLVYLQMNNLKPEDTAVYYCNVIATSASGRGVTSTSWGQGSQVTVSS
notes: Alpaca VHH expressed in E. coli; also called monomer antibody; not shown: C-terminal 3xFlag tag and His tag from the modified pET22b(+) vector
B2: VHH antibody including the amino acid sequence represented by SEQ ID NO: 40 (VHH)
VHH: QLQLVEPGGGVVQPGGSLRLSCLASGSDFSLGAMGWYRQAPGKQRELVAIINRASWTRYADSVKGRFTISRDNSKNLVFLQMNNLKPDDTAVYYCNAIATSASGRGVTSTSWGQGSQVTVSS
notes: not shown: C-terminal 3xFlag tag and His tag from the modified pET22b(+) vector
B3: VHH antibody including the amino acid sequence represented by SEQ ID NO: 39 (VHH)
VHH: QLQLVESGGGLVQAGGSLRLSCVASGFPFASSAMAWFRQAPGKEREFVASISYRGITTYYAQPVKGRFTMSRDNAKNTVYLQMNSLKPEDTAVYYCYAKSIWGNAYWGQGTQVTVSP
notes: also called Monovalent 65; not shown: C-terminal 3xFlag tag and His tag from the modified pET22b(+) vector
B4: VHH antibody including the amino acid sequence represented by SEQ ID NO: 41 (VHH)
VHH: EVQLVESGGGLVQAGGSLRLSCAVSGRTSSRYVMGWVRQAPGKEREFLAAISWSAGYTFYRDSVKGRFTISRDNAKNTVYLQMNSLKPEDTAVYYCNADENGLGRKRGFGSWGQGTQVTVSS
notes: also called anti-noro antibody; not shown: C-terminal 3xFlag tag and His tag from the modified pET22b(+) vector
B5: VHH antibody including the amino acid sequence represented by SEQ ID NO: 43 (VHH)
VHH: QLQLVESGGGLVQPGGSLRLSCAASGFTLDYYAIGWFRQAPGNEREFVAAISWNGGSTYYADSVKGRFTISRDNAKETVYLQMNSLKPEDTGVYYCNYRPQFGLGYNYWGQGTQVTVSS
notes: as for B4
B6: VHH antibody including the amino acid sequence represented by SEQ ID NO: 42 (VHH)
VHH: ELQLVESGGGAVHTGGSLRLSCAVSGRTDIRYAMGWFRQAPGREREFVAAISWNGDDTFYADSVKGRFTISRDNAKNAVSLQMDSLRPEDTAVYYCNARNSYAAFARAYWGQGTQVTVSS
notes: as for B4
B7: dimer antibody having two of the structural domains each having the amino acid sequence represented by SEQ ID NO: 38 (SEQ ID NO: 97) (VHH)
chain: QVQLVESGGGVVQTGGSLRLSCAASGSTFSIGAMGWYRQAPGKQRELVATVNRASRTIYADSVRGRFTISRDNAKNLVYLQMNNLKPEDTAVYYCNVIATSASGRGVTSTSWGQGSQVTVSSGGGGSGGGASGGGGSQVQLVESGGGVVQTGGSLRLSCAASGSTFSIGAMGWYRQAPGKQRELVATVNRASRTIYADSVRGRFTISRDNAKNLVYLQMNNLKPEDTAVYYCNVIATSASGRGVTSTSWGQGSQVTVSSEPKTPKPQSASAA
notes: also called Divalent 97
B8: dimer antibody (SEQ ID NO: 98) in which the structure domain of SEQ ID NO: 38 and the structure domain of SEQ ID NO: 39 are connected from N to C via a linker (VHH)
chain: QVQLVESGGGVVQTGGSLRLSCAASGSTFSIGAMGWYRQAPGKQRELVATVNRASRTIYADSVRGRFTISRDNAKNLVYLQMNNLKPEDTAVYYCNVIATSASGRGVTSTSWGQGSQVTVSSGGGGSGGGASGGGGSQLQLVESGGGLVQAGGSLRLSCVASGFPFASSAMAWFRQAPGKEREFVASISYRGITTYYAQPVKGRFTMSRDNAKNTVYLQMNSLKPEDTAVYYCYAKSIWGNAYWGQGTQVTVSPEPKTPKPQSASAA
notes: Single-chain tandem heterodimer of two VHH domains (38 then 39); also called Divalent 98
B9: dimer antibody (SEQ ID NO: 99) in which the structure domain of SEQ ID NO: 39 and the structure domain of SEQ ID NO: 38 are connected from N to C via a linker (VHH)
chain: QLQLVESGGGLVQAGGSLRLSCVASGFPFASSAMAWFRQAPGKEREFVASISYRGITTYYAQPVKGRFTMSRDNAKNTVYLQMNSLKPEDTAVYYCYAKSIWGNAYWGQGTQVTVSPGGGGSGGGASGGGGSQVQLVESGGGVVQTGGSLRLSCAASGSTFSIGAMGWYRQAPGKQRELVATVNRASRTIYADSVRGRFTISRDNAKNLVYLQMNNLKPEDTAVYYCNVIATSASGRGVTSTSWGQGSQVTVSSEPKTPKPQSASAA
notes: Single-chain tandem heterodimer of two VHH domains (39 then 38); also called Divalent 99

For orientation: Kd means the free concentration of one partner at which half of the binding sites on the other are occupied at equilibrium, for simple one-to-one binding. As a reminder, the koff is a measure of how fast the partners let go of each other. What is called kon is the rate constant with which the complex forms. Read a high kon as faster complex formation.

The target of the first assay is T1, noro antigen (recombinant of the …). The assay can be described thus: SPR (T200, CM5), noro antigen immobilized, VHH as analyte added serially.
For B1, the Kd is 1.15 nM.

On to B2, for which the Kd was found to be 9.5 nM.

Take B3: the Kd amounted to 15.8 nM.

The target is the same in another assay. The experiment in a line: SPR (T200, CM5), noro antigen immobilized, VHH as analyte, separate concentrations.
On to B4, for which the Kd was 81.6 nM.

On to B5, for which the Kd was 5.45 nM.

Take B6: the Kd worked out at 63.8 nM.

The target of the next assay is T2, VLP noro antigen derived from the …. The assay can be described thus: SPR (T200, CM3), VLP noro antigen immobilized, antibody as analyte.
B1: the affinity, expressed as Kd, was 149 nM; the koff turned out to be 0.0214 s⁻¹; the on-rate (kon) amounted to 144000 M⁻¹ s⁻¹.

B7 had a Kd of 0.13 nM, a koff of 0.000302 s⁻¹ and a kon of 2.32e+06 M⁻¹ s⁻¹.

In turn, B3 came in with a Kd of 54.8 nM.

Regarding B8, binding was characterised by a dissociation constant (Kd) of 0.485 nM, the koff was 0.00198 s⁻¹ and the on-rate (kon) was found to be 4.08e+06 M⁻¹ s⁻¹.

For the molecule B9, the Kd came to 0.00947 nM, the koff came to 0.000356 s⁻¹ and the kon was 3.75e+07 M⁻¹ s⁻¹.

The next assay concerns the target T1, noro antigen (recombinant of the …). The assay can be described thus: SPR (T200), VHH immobilized, noro antigen as analyte added serially.
Take B1: the Kd was determined as 4.15 nM.

B4: the Kd is 4.98 nM.

Turning to B2, the Kd stood at 9.57 nM.

As for B5, the Kd came out at 10.3 nM.

With B3, the Kd amounted to 15.9 nM.

Take B6: the Kd came to 13.1 nM.

These data come from US20200062828A1 (PANASONIC INTELLECTUAL PROPERTY MANAGEMENT, published 2020).
